Data as given in patent publication US20230220059A1 (CRISPR THERAPEUTICS, published 2023).

Legend:
[1] = target: T1, biotinylated recombinant human BCMA (Acro Biosystems Cat: #BC7-H82F0) (human, UniProt Q02223 1-54, biotinylated); test: flow cytometry; CTX120 cells stained with biotinylated BCMA and fluorescent streptavidin
T1 construct: Bought reagent; Detected with fluorescent streptavidin
T1 sequence (looked up): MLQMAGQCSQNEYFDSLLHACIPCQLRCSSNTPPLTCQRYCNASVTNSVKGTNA
Method: The resultant genetically engineered T cells were characterized for incorporation of the desired gene edits: loss of TCR, loss of MHC I expression, and expression of an anti-BCMA CAR. Approximately one week after gene-editing, allogeneic T cells were assessed for surface expression of TCR, β2M, and anti-BCMA CAR using flow cytometry. The allogeneic cells were stained with biotinylated recombinant human BCMA (Acro Biosystems Cat: #BC7-H82F0) and tagged with fluorescent streptavidin and with fluorescent antibodies targeting cell surface markers. The percentage of cells that were TCR⁻, β2M⁻, and anti-BCMA CAR⁺ was determined. Nine lots of CTX120 cells were prepared from eight healthy donors.

[2] = target: T2, mouse BCMA (mouse, UniProt O88472 1-49, limits assumed); test: not described (statement within Example 5)
T2 construct: also called murine BCMA
T2 chain (looked up): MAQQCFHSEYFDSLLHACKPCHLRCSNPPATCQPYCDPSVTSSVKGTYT

B1: anti-BCMA CAR (CTX-166b) expressed on CTX120 cells (other)
chain: QVQLVQSGAELKKPGASVKVSCKASGNTLTNYVIHWVRQAPGQRLEWMGYILPYNDLTKYSQKFQGRVTITRDKSASTAYMELSSLRSEDTAVYYCTRWDWDGFFDPWGQGTTVTVSSGGGGSGGGGSGGGGSEIVMTQSPATLSVSPGERASISCRASQSLVHSNGNTHLHWYQQRPGQAPRLLIYSVSNRFSEVPARFSGSGSGTDFTLTISSVESEDFAVYYCSQTSHIPYTFGGGTKLEIKSAAAFVPVFLPAKPTTTPAPRPPTPAPTIASQPLSLRPEACRPAAGGAVHTRGLDFACDIYIWAPLAGTCGVLLLSLVITLYCNHRNRKRGRKKLLYIFKQPFMRPVQTTQEEDGCSCRFPEEEEGGCELRVKFSRSADAPAYQQGQNQLYNELNLGRREEYDVLDKRRGRDPEMGGKPRRKNPQEGLYNELQKDKMAEAYSEIGMKGERRRGKGHDGLYQGLSTATKDTYDALHMQALPPR
notes: TRAC and B2M disrupted; also called CTX120 anti-BCMA CAR
B1: binds [1]; no binding [2].
